Test system: Escherichia coli TOP10
Assay: shrunken log2 fold change of peptide-encoding DNA abundance (4.5 h post-induction vs induction); higher = less antimicrobial activity (less host growth inhibition)
Conditions: time post-induction: 4.5 h; library: site-saturation at positions 5, 18, 19, 20
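Note: peptides expressed intracellularly from a pBAD plasmid library in pooled LB shake-flask culture, induced with 0.3% L-arabinose, DNA abundance read by NGS, three biological replicates, DESeq2 with apeglm shrinkage.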

Sequence	shrunken log2 fold change
RRIRPRPPRLPRPRPRPKHRPRP	0.0187
RRIRDRPPRLPRPRPRPSKCPRP	-0.317
RRIRVRPPRLPRPRPRPPHWPRP	0.489
RRIRNRPPRLPRPRPRPQAQPRP	-0.0086
RRIRERPPRLPRPRPRPCFHPRP	-0.327
RRIRCRPPRLPRPRPRPPFVPRP	0.145
RRIRSRPPRLPRPRPRPWFVPRP	-0.36
RRIRCRPPRLPRPRPRPTQSPRP	0.565
RRIRHRPPRLPRPRPRPGFTPRP	-0.358
RRIRYRPPRLPRPRPRPWCVPRP	-0.55
RRIRCRPPRLPRPRPRPAPIPRP	1.74
RRIRERPPRLPRPRPRPKCFPRP	-0.193
RRIRKRPPRLPRPRPRPDSLPRP	0.00855
RRIRMRPPRLPRPRPRPAKSPRP	0.261
RRIRSRPPRLPRPRPRPCTQPRP	-0.294
RRIRLRPPRLPRPRPRPDYPPRP	-0.307
RRIRHRPPRLPRPRPRPKFTPRP	-0.219
RRIRGRPPRLPRPRPRPQGQPRP	0.414
RRIRRRPPRLPRPRPRPRTMPRP	0.221
RRIRSRPPRLPRPRPRPCASPRP	0.121
RRIRPRPPRLPRPRPRPCVCPRP	0.0289
RRIRCRPPRLPRPRPRPCVWPRP	-0.013
RRIRVRPPRLPRPRPRPDTNPRP	-0.479
RRIRMRPPRLPRPRPRPKLFPRP	0.244
RRIRHRPPRLPRPRPRPSMCPRP	-0.448

Sequence	shrunken log2 fold change
RRIRFRPPRLPRPRPRPLFNPRP	-0.605
RRIRKRPPRLPRPRPRPMKCPRP	0.0794
RRIRCRPPRLPRPRPRPPEQPRP	2.18
RRIRCRPPRLPRPRPRPMQPPRP	0.462
RRIRFRPPRLPRPRPRPEPNPRP	0.256
RRIRPRPPRLPRPRPRPCCRPRP	-0.339
RRIRNRPPRLPRPRPRPTDVPRP	-0.0793
RRIRPRPPRLPRPRPRPERSPRP	0.0565
RRIRTRPPRLPRPRPRPSPSPRP	-0.0444
RRIRMRPPRLPRPRPRPCTEPRP	-0.0649
RRIRARPPRLPRPRPRPNQTPRP	0.064
RRIRCRPPRLPRPRPRPKQPPRP	0.595
RRIRQRPPRLPRPRPRPMCWPRP	-0.00818
RRIRNRPPRLPRPRPRPCGQPRP	0.0151
RRIRERPPRLPRPRPRPYNMPRP	0.0461
RRIRMRPPRLPRPRPRPRNYPRP	-0.0232
RRIRERPPRLPRPRPRPLQMPRP	-0.0246
RRIRFRPPRLPRPRPRPPFDPRP	0.188
RRIRRRPPRLPRPRPRPKKKPRP	-0.00706
RRIRRRPPRLPRPRPRPYVMPRP	-0.882
RRIRFRPPRLPRPRPRPAPPPRP	0.736
RRIRKRPPRLPRPRPRPRWVPRP	0.642
RRIRVRPPRLPRPRPRPQALPRP	-0.000718
RRIRCRPPRLPRPRPRPNYNPRP	-0.986
RRIRWRPPRLPRPRPRPVPDPRP	-0.101

Sequence	shrunken log2 fold change
RRIRMRPPRLPRPRPRPQNLPRP	0.12
RRIRLRPPRLPRPRPRPYHIPRP	-0.713
RRIRGRPPRLPRPRPRPVLGPRP	0.343
RRIRNRPPRLPRPRPRPEGAPRP	2.8
RRIRHRPPRLPRPRPRPVWTPRP	-0.225
RRIRLRPPRLPRPRPRPLLNPRP	-0.468
RRIRMRPPRLPRPRPRPNVSPRP	0.141
RRIRTRPPRLPRPRPRPMDFPRP	0.0159
RRIRVRPPRLPRPRPRPENEPRP	-0.0631
RRIRGRPPRLPRPRPRPYFWPRP	0.0833
RRIRKRPPRLPRPRPRPSSRPRP	-0.038
RRIRTRPPRLPRPRPRPYQTPRP	-0.128
RRIRVRPPRLPRPRPRPQPEPRP	0.23
RRIRVRPPRLPRPRPRPYPIPRP	-0.0204
RRIRMRPPRLPRPRPRPWHNPRP	-0.0135
RRIRNRPPRLPRPRPRPVPLPRP	-0.539
RRIRVRPPRLPRPRPRPKVVPRP	0.174
RRIRTRPPRLPRPRPRPHNPPRP	-0.385
RRIRDRPPRLPRPRPRPPPIPRP	0.45
RRIRSRPPRLPRPRPRPIHFPRP	-0.106
RRIRSRPPRLPRPRPRPGHMPRP	0.0805
RRIRRRPPRLPRPRPRPKAEPRP	0.0655
RRIRCRPPRLPRPRPRPTNQPRP	-0.427
RRIRIRPPRLPRPRPRPMFVPRP	-0.279
RRIRPRPPRLPRPRPRPPWEPRP	0.0889

— the supplement of paper PMC9112550, “Optimization of the antimicrobial peptide Bac7 by deep mutational scanning” (BMC Biology, 2022)
